Data reported in US20050153395A1, “Unique integrin binding site in connective tissue growth factor (CTGF)” (CHILDREN'S HOSPITAL INC., priority 2003, published 2005).

B1: Heparinase I: enzyme that acts on highly sulfated heparan sulfate proteoglycans (protein, UniProt Q05819 22-384, looked up)
Heparin lyase I: QQKKSGNIPYRVNVQADSAKQKAIIDNKWVAVGINKPYALQYDDKLRFNGKPSYRFELKAEDNSLEGYAAGETKGRTELSYSYATTNDFKKFPPSVYQNAQKLKTVYHYGKGICEQGSSRSYTFSVYIPSSFPDNATTIFAQWHGAPSRTLVATPEGEIKTLSIEEFLALYDRMIFKKNIAHDKVEKKDKDGKITYVAGKPNGWKVEQGGYPTLAFGFSKGYFYIKANSDRQWLTDKADRNNANPENSEVMKPYSSEYKTSTIAYKMPFAQFPKDCWITFDVAIDWTKYGKEANTILKPGKLDVMMTYTKNKKPQKAHIVNQQEILIGRNDDDGYYFKFGIYRVGNSTVPVTYNLSGYSETAR
B2: CTGF3-4: C-terminal CTGF fragment comprising modules 3 and 4 (protein)
chain: AYRLEDTFGPDPTMIRANCLVQTTEWSACSKTCGMGISTRVTNDNASCRLEKQSRLCMVRPCEADLEENIKKGKKCIRTPKISKPIKFELSGCTSMKTYRAKFCGVCTDGRCCTPHRTTTLPVEFKCPDGEVMKKNMMFIKTCACHYNCPGDNDIFESLYYRKMYGDMA
B3: CTGF1-4: full length CTGF protein, 38 kDa (protein)
chain: QNCSGPCRCPDEPAPRCPAGVSLVLDGCGCCRVCAKQLGELCTERDPCDPHKGLFCDFGSPANRKIGVCTAKDGAPCIFGGTVYRSGESFQSSCKYQCTCLDGAVGCMPLCSMDVRLPSPDCPFPRRVKLPGKCCEEWVCDEPKDQTVVGPALAAYRLEDTFGPDPTMIRANCLVQTTEWSACSKTCGMGISTRVTNDNASCRLEKQSRLCMVRPCEADLEENIKKGKKCIRTPKISKPIKFELSGCTSMKTYRAKFCGVCTDGRCCTPHRTTTLPVEFKCPDGEVMKKNMMFIKTCACHYNCPGDNDIFESLYYRKMYGDMA

How the values were obtained:
[1] = test system: hepatic stellate cells (HSC); assay: HSC adhesion assay on coated wells (CyQUANT fluorescence); type: cell-based, rat
Method: CTGF4 is known to be expressed in hepatic stellate cells (HSC) and to induce proliferation and extracellular matrix (ECM) production in these cells. (Williams et al., J Hepatol 32, 754-761, 2000; Paradis et al., Lab Invest 82, 767-774, 2002). The following experiments were carried out to determine if HSCs adhere to CTGF. HSCs were isolated from normal Sprague-Dowley rate by sequential perfusion with pronase/collagenase and purified by density gradient separation as described in Vyas et al. (Gastroenterology 109: 889-898, 1995).
The cells were subsequently detached using 1 mM EDTA PBS (137 mM NaCl, 2.7 mM KCl, 4.3 mM Na2HPO4, 1.4 mM KH2PO4, pH 7.3), washed twice in DMEM and resuspended in serum free medium containing 0.5% BSA. The cells-were plated (1.25×10^4 cells/well) in a 96 well plate coated with one of the following: 2 μg/ml CTGF isoform (CTGF1-4, CTGF3-4, CTGF4), 1 μg/ml laminin, or 4 μg/ml vitronectin and incubated for 20 minutes at 37° C. Subsequently the cells were washed with PBS and the adherent cells were fixed with 10% formalin and stained with CyQUANT GR dye/cell lysis buffer (Molecular Probes , Eugene, Oreg.) according to the manufacturer's instructions. The number of cells that adhered to CTGF isoforms or ECM protein was quantified by measuring the sample fluorescence intensity at Ex/Em: 480/520 nm using a micro-plate reader (CytoFluor™ 2350).
To determine if the CTGF-mediated HSC adhesion was carried out through integrin receptors, the experiment described above were carried out in the presence and absence of 10 mM EDTA. […] It is widely believed that Mn^2+ induces conformational shifts that mimic the physiological activation of β1 and β3 integrins (Roberts et al., J Biol Chem 278: 1975-1985, 2003, van der Pauw et al., J Periodontal Res 37: 317-323, 2002) as Mn^2+-induced activation leads to enhanced ligand-binding affinity and cell adhesion (Mould et al., J Biol Chem 277: 19800-19805, 2002, Loftus & Liddington J Clin Invest 100: S77-81, 1997, Lin et al., J Biol Chem 272: 14236-14243, […]). […]

PSCs [2] = assay: PSC chemotaxis (migration) assay in culture insert; type: cell-based, rat; details: substance in lower chamber
Method: To examine whether CTGF plays a role in PSC migration, a chemotaxis assay was carried out in which the migratory behavior of PSCs in the upper chamber of a culture insert was assessed following addition of CTGF to the lower chamber. […] PSC migration was also promoted by FN, PDGF or TGF-β1.

integrin α5β1 = integrin α5β1 (Homo sapiens, UniProt P05556+P08648); assay: Solid phase ELISA of integrin α5β1 binding; details: for binding to integrin α5β1: coated at 2 μg/ml, 1 μg/ml integrin
Method: In a second approach, a solid phase binding assay was used in which CTGF1-4 or FN were individually coated onto microtiter wells that were subsequently incubated with purified integrin α5β1. The presence of immobilized integrin α5β1 was detected by ELISA using an anti-integrin α5β1 antibody similar to the methods described in Example 3 above. In addition, CTGF1-4 bound to integrin α5β1 in a dose-dependent manner, with maximal binding at 2 μg/ml CTGF. This level of CTGF1-4 (2 μg/ml) binding was the same as that elicited by 2 μg/ml FN, a well known ligand of integrin α5β1. In a similar experiment, 2 μg/ml of CTGF1-4;CTGF3-4 or CTGF4 were individually precoated onto microtiter wells. Using the solid-phase assay, integrin α5β1 bound to CTGF1-4, CTGF3-4 or CTGF4 See FIG. 5 (Panel B).
To directly analyze whether α5β1 integrin binds to CTGF4, microtiter wells coated with CTGF4 (2 μg/ml) or FN (4 μg/ml) were used in an ELISA assay to detect integrin binding, as described in Example 3. For these assays, 1 μg/ml integrin α5β1, alone or in the presence of 35 μM of P2peptide (CTGF[257-272]) and 35 μM of P5 peptide (CTGF [285-291]), were added to the precoated plates. […] The binding between CTGF4 and integrin α5 β1 was blocked by peptide P5 (CTGF [285-291]) or peptide P2 (CTGF[257-272]). […]

[3] = test system: pancreatic stellate cells (PSC); assay: PSC adhesion assay on coated wells; type: cell-based, rat; details: coated at 2 μg/ml
Excerpt: Rat PSCs were isolated by a modification of the method described by Phillips et al., Gut; 52:677-82, 2003. Briefly, pancreatic tissue was digested in situ with 0.03% collagenase P (Roche, Indianapolis, Ind.) in HBSS by perfusion through the thoracic aorta. This protocol was approved by the Institutional Animal Care and Use Committee of Children's Research Institute, Columbus, Ohio. The tissue was pooled, minced with scissors, and then digested with 0.05% collagenase P, 0.02% protease XIV (Sigma, St. Louis), and DNase I (Roche, Indianapolis, Ind.) in HBSS. The resulting cell suspension was centrifuged in a 12% Optiprep gradient at 1400 g for 14 minutes. Stellate cells separated into a hazy band just above the interface of a the gradient and the aqueous buffer. This band was harvested, and the cells washed and resuspended in DMEM supplemented with 25 mM Hepes buffer, 10% FBS, and 100 U/ml penicillin in, 100 μg/ml streptomycin. The, cells were maintained at 37° C. in a humidified atmosphere of 5% CO2/95% air.
The ability of activated PSC to adhere to non-tissue culture plastic microtiter wells coated with recombinant CTGF1-4, CTGF3-4 or CTGF4 was investigated. The solid phase binding assay was carried out as described in Example 2. […] To assess the possibility that CTGF-mediated PSC adhesion involved cell surface integrins, the effect of divalent cations on cell adhesion was examined, as described in Example 2. […]
Because CTGF is a heparin-binding protein, this property was further investigated.
To identify the peptides that bind to PSCs, cell adhesion assays were carried out as described in Example 3.
To further investigate the peptide binding, P2 or P5 (10 μM) or vehicle buffer alone (no add) were added to PSC cell suspensions for 30 minutes at room temperature.

collagen I mRNA = assay: Collagen I mRNA expression in PSCs; type: cell-based, rat
PSCs [4] = assay: PSC DNA synthesis, [3H]thymidine incorporation; type: cell-based, rat; details: 24 hours; CTGF1-4 effect in 0.1% serum, not in serum-free medium
Method: To measure the effect of CTGF on cell proliferation, DNA synthesis was measured by ^3H incorporation in PSCs. The cells were incubated for 24 hours with 0.2 μCi [^3H] thymidine in each well (24-well plate). The incorporation of [^3H] thymidine into PSC DNA was determined using a scintillation counter after the cells had been washed with PBS, fixed with 10% methanol, treated with cold 5% trichloroacetic acid, and lysed in 0.3 N NaOH.

Sequence of integrin α5β1 (P08648 42-894 limits assumed): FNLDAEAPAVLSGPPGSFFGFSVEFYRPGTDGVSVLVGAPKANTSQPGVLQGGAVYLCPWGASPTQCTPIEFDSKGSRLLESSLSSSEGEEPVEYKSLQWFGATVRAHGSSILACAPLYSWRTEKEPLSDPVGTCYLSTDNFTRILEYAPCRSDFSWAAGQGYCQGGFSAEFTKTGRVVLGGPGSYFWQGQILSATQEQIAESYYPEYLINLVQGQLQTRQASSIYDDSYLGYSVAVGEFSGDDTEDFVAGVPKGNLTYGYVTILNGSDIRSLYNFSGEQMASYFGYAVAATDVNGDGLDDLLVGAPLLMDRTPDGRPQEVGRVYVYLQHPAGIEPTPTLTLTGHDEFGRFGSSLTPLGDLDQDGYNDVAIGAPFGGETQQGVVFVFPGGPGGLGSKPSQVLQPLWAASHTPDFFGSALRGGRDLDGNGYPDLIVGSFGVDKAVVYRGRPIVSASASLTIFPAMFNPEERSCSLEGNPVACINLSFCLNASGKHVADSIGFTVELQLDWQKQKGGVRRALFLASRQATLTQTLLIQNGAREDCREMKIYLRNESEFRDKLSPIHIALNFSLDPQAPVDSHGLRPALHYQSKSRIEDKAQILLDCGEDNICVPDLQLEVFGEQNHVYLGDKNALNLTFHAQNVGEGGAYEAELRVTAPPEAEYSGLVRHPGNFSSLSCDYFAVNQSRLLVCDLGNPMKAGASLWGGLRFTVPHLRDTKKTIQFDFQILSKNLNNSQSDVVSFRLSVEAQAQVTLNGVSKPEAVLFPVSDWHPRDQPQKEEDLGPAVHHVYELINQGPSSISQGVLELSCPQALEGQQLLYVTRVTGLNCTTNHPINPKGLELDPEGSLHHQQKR
Sequence of integrin α5β1 (P08648 895-1049 partner limits assumed): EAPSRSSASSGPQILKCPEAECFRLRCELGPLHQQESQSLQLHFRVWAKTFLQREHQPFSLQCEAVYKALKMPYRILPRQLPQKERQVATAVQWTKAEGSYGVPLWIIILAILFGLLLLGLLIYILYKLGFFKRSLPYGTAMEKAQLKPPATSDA
Sequence of integrin α5β1 (P05556 21-798): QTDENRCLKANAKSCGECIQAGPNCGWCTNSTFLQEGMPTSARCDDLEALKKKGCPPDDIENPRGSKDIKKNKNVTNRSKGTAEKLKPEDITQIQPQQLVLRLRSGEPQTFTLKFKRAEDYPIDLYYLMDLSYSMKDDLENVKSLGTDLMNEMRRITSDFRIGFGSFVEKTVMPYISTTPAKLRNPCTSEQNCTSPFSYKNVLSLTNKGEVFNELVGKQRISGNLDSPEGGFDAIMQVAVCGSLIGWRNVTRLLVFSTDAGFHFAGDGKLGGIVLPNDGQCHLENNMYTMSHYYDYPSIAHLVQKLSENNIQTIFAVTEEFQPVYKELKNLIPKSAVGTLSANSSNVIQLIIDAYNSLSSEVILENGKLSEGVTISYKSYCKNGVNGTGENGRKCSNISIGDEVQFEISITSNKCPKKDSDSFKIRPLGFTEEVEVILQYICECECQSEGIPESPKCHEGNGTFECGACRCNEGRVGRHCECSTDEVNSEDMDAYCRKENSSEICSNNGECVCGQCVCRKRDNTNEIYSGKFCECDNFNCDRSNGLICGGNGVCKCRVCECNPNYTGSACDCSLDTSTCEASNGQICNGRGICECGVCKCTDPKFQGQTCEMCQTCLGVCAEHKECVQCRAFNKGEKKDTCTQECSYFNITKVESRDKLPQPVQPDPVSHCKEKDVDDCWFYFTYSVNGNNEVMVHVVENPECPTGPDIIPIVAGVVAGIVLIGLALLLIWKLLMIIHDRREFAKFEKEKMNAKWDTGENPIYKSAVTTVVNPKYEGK

Molecule | inhibition of HSC adherence to CTGF[257-272] ([1]; peptide-coated wells, heparin 2 μg/ml) | inhibition of CTGF4-mediated HSC adhesion ([1]; wells coated 2 μg/ml CTGF4, EDTA 10 mM, GRGDsp 1 mM, Echistatin 2 μM, antibody/IgG 25 μg/ml, heparin 2 μg/ml) | inhibition of vitronectin-mediated HSC adhesion ([1]; wells coated 4 μg/ml vitronectin) | PSC migration (PSCs [2]) | binding to integrin α5β1 (integrin α5β1) | PSC adhesion supported by the coated substance [3] | collagen I mRNA expression in PSCs (collagen I mRNA) | binding to integrin α5β1, maximal binding at (integrin α5β1; coated protein) | PSC proliferation (DNA synthesis) (PSCs [4])
B1 | abrogated | unable to adhere | adhered to vitronectin |  |  |  |  |  | 
B2 |  |  |  | induced PSC migration | bound | significantly promoted |  |  | 
B3 |  |  |  | induced PSC migration | bound | significantly promoted | significantly increased | 2 µg/mL | significantly enhanced
